Patent publication US20220089683A1 (ACCELERON PHARMA, published 2022)

T1: activin B (UniProt P09529 293-407)
T1 sequence (looked up): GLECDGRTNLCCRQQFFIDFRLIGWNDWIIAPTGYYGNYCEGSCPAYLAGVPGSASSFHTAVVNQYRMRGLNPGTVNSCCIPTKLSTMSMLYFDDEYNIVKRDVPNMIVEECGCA

T2: activin A (UniProt P08476 311-426)
T2 sequence (looked up): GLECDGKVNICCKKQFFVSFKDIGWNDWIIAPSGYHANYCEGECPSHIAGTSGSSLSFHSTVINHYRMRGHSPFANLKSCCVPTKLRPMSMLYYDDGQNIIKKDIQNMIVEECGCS

B1: GDF11 (ligand, UniProt O95390 299-407, looked up)
chain: NLGLDCDEHSSESRCCRYPLTVDFEAFGWDWIIAPKRYKANYCSGQCEYMFMQKYPHTHLVQQANPRGSAGPCCTPTKMSPINMLYFNDKQQIIYGKIPGMVVDRCGCS
notes: also called BMP11

Tests used:
ActRIIA-mFc = biological target: T3, ActRIIA-mFc (human, UniProt P27037 21-135); assay: SPR (Biacore), ligand amine-coupled on CM5 chip, fusion protein loaded in solution
T3 construct: also called hActRIIA-mFc; not shown: mouse Fc domain
T3 sequence (P27037 21-135): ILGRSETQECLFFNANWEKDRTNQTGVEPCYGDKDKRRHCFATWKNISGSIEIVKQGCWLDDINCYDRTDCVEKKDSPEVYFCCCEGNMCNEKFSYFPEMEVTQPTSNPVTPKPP
Method: GDF-11 or activin A were immobilized on a Biacore™ CM5 chip using standard amine-coupling procedure. ActRIIA-hFc and ActRIIA-mFc proteins were loaded onto the system, and binding was measured.

activin B = biological target: T1, activin B; assay: SPR (Biacore)
activin A = biological target: T2, activin A; assay: SPR (Biacore)
GDF11 = biological target: B1; assay: SPR (Biacore)

Row | Binder | binding result (ActRIIA-mFc) | Kd (activin B) [nM] | Kd (activin A) [nM] | Kd (GDF11) [nM]
1 | B1 | binds |  |  | 
2 | ActRIIB(20-134)-hFc (Fc fusion, also called ActRIIB-hFc; hActRIIB-hFc) GRGEAETRECIYYNANWELERTNQSGLERCEGEQDKRLHCYASWRNSSGTIELVKKGCWLDDFNCYDRQECVATEENPQVYFCCCEGNFCNERFTHLPEAGGPEVTYEPPPTAPTGGGTHTCPPCPAPELLGGPSVFLFPPKPKDTLMISRTPEVTCVVVDVSHEDPEVKFNWYVDGVEVHNAKTKPREEQYNSTYRVVSVLTVLHQDWLNGKEYKCKVSNKALPVPIEKTISKAKGQPREPQVYTLPPSREEMTKNQVSLTCLVKGFYPSDIAVEWESNGQPENNYKTTPPVLDSDGSFFLYSKLTVDKSRWQQGNVFSCSVMHEALHNHYTQKSLSLSPGK |  | 0.012 | 0.016 | 0.036
